# From PMC8384158
# Legend:
# Assay in all cases: TAP pull-down interactome analysis (LC-MS/MS)
# Settings in all cases: MCF-7 cells; read off a plot
# SERPINH1 = biological target: SERPINH1
# HSP90AB1 = biological target: HSP90AB1
# HSPA2 = biological target: HSPA2
# CCT6A = biological target: CCT6A
# GANAB = biological target: GANAB
# HSPA9 = biological target: HSPA9
# ERP29 = biological target: ERP29
# PDIA4 = biological target: PDIA4
# UBA1 = biological target: UBA1
# RPN2 = biological target: RPN2
# TCP1 = biological target: TCP1
# PSMB6 = biological target: PSMB6
# CCT5 = biological target: CCT5
# CCT2 = biological target: CCT2
# PSMD2 = biological target: PSMD2
# CCT3 = biological target: CCT3
# UCHL1 = biological target: UCHL1
Substance,other: log2 relative change (SERPINH1) [log2],other: log2 relative change (HSP90AB1) [log2],other: log2 relative change (HSPA2) [log2],other: log2 relative change (CCT6A) [log2],other: log2 relative change (GANAB) [log2],other: log2 relative change (HSPA9) [log2],other: log2 relative change (ERP29) [log2],other: log2 relative change (PDIA4) [log2],other: log2 relative change (UBA1) [log2],other: log2 relative change (RPN2) [log2],other: log2 relative change (TCP1) [log2],other: log2 relative change (PSMB6) [log2],other: log2 relative change (CCT5) [log2],other: log2 relative change (CCT2) [log2],other: log2 relative change (PSMD2) [log2],other: log2 relative change (CCT3) [log2],other: log2 relative change (UCHL1) [log2]
TAP–Bag-1S (from UniProt Q99933-4) I103K,-0.85,-1.2,0.7,-1.6,-0.47,-0.32,-2.3,-0.8,-0.2,-1.9,-1.7,-0.9,-1.5,-0.82,-2,–,–
TAP–Bag-1S (from UniProt Q99933-4) R161D,-1.3,-1.9,–,–,-1.8,-0.32,–,-0.7,-2,–,-0.52,-2.3,2,-1.6,-2.1,-1.4,–
TAP–Bag-1S (from UniProt Q99933-4) R193D,-0.12,-0.65,0.77,–,-0.15,-0.07,1.5,-0.65,0.37,-1.5,0.5,-0.85,-0.45,-0.05,-1.1,1,-0.77
TAP–Bag-1S (from UniProt Q99933-4) R162E,-1.1,-1.7,–,-2,-0.52,-1.7,–,-1.8,-0.47,-2.1,-1.9,-2.3,-0.35,-1.5,–,-1.2,–
